*1 amine or outer side, *2 acyl side, *3 side chain or, on linkers, in order; H or OH if unused. [ ]: non-standard residue; d: D form. TyrEtNAc = L-tyrosine O-ethyl acetamide, (S)-3-(4-(2-acetamidoethoxy)phenyl)-2-aminopropanoic acid, CC(=O)NCCOc1ccc(C[C@H](N[*:1])C(=O)[*:2])cc1; hF3CF3 = (S)-2-amino-4-(3-(trifluoromethyl)phenyl)butanoic acid, O=C([C@H](CCc1cccc(C(F)(F)F)c1)N[*:1])[*:2]; Cha44F2 = (S)-2-amino-3-(4,4-difluorocyclohexyl)propanoic acid, O=C([C@H](CC1CCC(F)(F)CC1)N[*:1])[*:2]; AbuMph = (S)-2-amino-4-morpholinobutanoic acid, O=C([C@H](CCN1CCOCC1)N[*:1])[*:2]; Trp(4-Cl)(βS-Me) = C[C@@H](c1c[nH]c2cccc(Cl)c12)[C@H](N)C(=O)O; Pro(trans-4-NH2) = O=C([C@@H]1C[C@@H](N[*:3])CN1[*:1])[*:2]; Bip(4'-COOH) = N[C@@H](Cc1ccc(-c2ccc(C(=O)O)cc2)cc1)C(=O)O; Phe(4-COOH) = N[C@@H](Cc1ccc(C(=O)O)cc1)C(=O)O; hTyr = N[C@@H](CCc1ccc(O)cc1)C(=O)O; hPhe = N[C@@H](CCc1ccccc1)C(=O)O; 4Pal = N[C@@H](Cc1ccncc1)C(=O)O; dDab = NCC[C@@H](N)C(=O)O; dNMeA = CN[C@H](C)C(=O)O; Dab = NCC[C@H](N)C(=O)O; Nva = CCC[C@H](N)C(=O)O; Dap = NC[C@H](N)C(=O)O
B1: SEQ ID NO: 137 (Example No. 137) (peptide)
peptide: cyclo([TyrEtNAc]W[Phe(4-COOH)]G[Pro(trans-4-NH2)][Trp(4-Cl)(βS-Me)]D[dNMeA]G[Bip(4'-COOH)]KL[dA][hF3CF3])
SMILES: CC(=O)NCCOc1ccc(C[C@@H]2NC(=O)[C@H](CCc3cccc(C(F)(F)F)c3)NC(=O)[C@@H](C)NC(=O)[C@H](CC(C)C)NC(=O)[C@H](CCCCN)NC(=O)[C@H](Cc3ccc(-c4ccc(C(=O)O)cc4)cc3)NC(=O)CNC(=O)[C@@H](C)N(C)C(=O)[C@H](CC(=O)O)NC(=O)[C@H]([C@@H](C)c3c[nH]c4cccc(Cl)c34)NC(=O)[C@@H]3C[C@@H](N)CN3C(=O)CNC(=O)[C@H](Cc3ccc(C(=O)O)cc3)NC(=O)[C@H](Cc3c[nH]c4ccccc34)NC2=O)cc1
B2: SEQ ID NO: 144 (Example No. 144) (peptide)
peptide: cyclo([TyrEtNAc]W[Phe(4-COOH)]G[Pro(trans-4-NH2)][Trp(4-Cl)(βS-Me)]D[dNMeA]G[Bip(4'-COOH)]W[Dap][dA][hPhe])
SMILES: CC(=O)NCCOc1ccc(C[C@@H]2NC(=O)[C@H](CCc3ccccc3)NC(=O)[C@@H](C)NC(=O)[C@H](CN)NC(=O)[C@H](Cc3c[nH]c4ccccc34)NC(=O)[C@H](Cc3ccc(-c4ccc(C(=O)O)cc4)cc3)NC(=O)CNC(=O)[C@@H](C)N(C)C(=O)[C@H](CC(=O)O)NC(=O)[C@H]([C@@H](C)c3c[nH]c4cccc(Cl)c34)NC(=O)[C@@H]3C[C@@H](N)CN3C(=O)CNC(=O)[C@H](Cc3ccc(C(=O)O)cc3)NC(=O)[C@H](Cc3c[nH]c4ccccc34)NC2=O)cc1
B3: SEQ ID NO: 145 (Example No. 145) (peptide)
peptide: cyclo([TyrEtNAc]W[Phe(4-COOH)]G[Pro(trans-4-NH2)][Trp(4-Cl)(βS-Me)]D[dNMeA]G[Bip(4'-COOH)]W[Dap][dA][hTyr])
SMILES: CC(=O)NCCOc1ccc(C[C@@H]2NC(=O)[C@H](CCc3ccc(O)cc3)NC(=O)[C@@H](C)NC(=O)[C@H](CN)NC(=O)[C@H](Cc3c[nH]c4ccccc34)NC(=O)[C@H](Cc3ccc(-c4ccc(C(=O)O)cc4)cc3)NC(=O)CNC(=O)[C@@H](C)N(C)C(=O)[C@H](CC(=O)O)NC(=O)[C@H]([C@@H](C)c3c[nH]c4cccc(Cl)c34)NC(=O)[C@@H]3C[C@@H](N)CN3C(=O)CNC(=O)[C@H](Cc3ccc(C(=O)O)cc3)NC(=O)[C@H](Cc3c[nH]c4ccccc34)NC2=O)cc1
B4: SEQ ID NO: 142 (Example No. 142) (peptide)
peptide: cyclo([TyrEtNAc]W[Phe(4-COOH)]G[Pro(trans-4-NH2)][Trp(4-Cl)(βS-Me)]D[dNMeA]G[Bip(4'-COOH)]W[Dab][dA][hPhe])
SMILES: CC(=O)NCCOc1ccc(C[C@@H]2NC(=O)[C@H](CCc3ccccc3)NC(=O)[C@@H](C)NC(=O)[C@H](CCN)NC(=O)[C@H](Cc3c[nH]c4ccccc34)NC(=O)[C@H](Cc3ccc(-c4ccc(C(=O)O)cc4)cc3)NC(=O)CNC(=O)[C@@H](C)N(C)C(=O)[C@H](CC(=O)O)NC(=O)[C@H]([C@@H](C)c3c[nH]c4cccc(Cl)c34)NC(=O)[C@@H]3C[C@@H](N)CN3C(=O)CNC(=O)[C@H](Cc3ccc(C(=O)O)cc3)NC(=O)[C@H](Cc3c[nH]c4ccccc34)NC2=O)cc1
B5: SEQ ID NO: 141 (Example No. 141) (peptide)
peptide: cyclo([TyrEtNAc]W[Phe(4-COOH)]G[Pro(trans-4-NH2)][Trp(4-Cl)(βS-Me)]D[dNMeA]G[Bip(4'-COOH)]W[AbuMph][dA][hTyr])
SMILES: CC(=O)NCCOc1ccc(C[C@@H]2NC(=O)[C@H](CCc3ccc(O)cc3)NC(=O)[C@@H](C)NC(=O)[C@H](CCN3CCOCC3)NC(=O)[C@H](Cc3c[nH]c4ccccc34)NC(=O)[C@H](Cc3ccc(-c4ccc(C(=O)O)cc4)cc3)NC(=O)CNC(=O)[C@@H](C)N(C)C(=O)[C@H](CC(=O)O)NC(=O)[C@H]([C@@H](C)c3c[nH]c4cccc(Cl)c34)NC(=O)[C@@H]3C[C@@H](N)CN3C(=O)CNC(=O)[C@H](Cc3ccc(C(=O)O)cc3)NC(=O)[C@H](Cc3c[nH]c4ccccc34)NC2=O)cc1
B6: SEQ ID NO: 135 (Example No. 135) (peptide)
peptide: cyclo([TyrEtNAc]W[Phe(4-COOH)]G[Pro(trans-4-NH2)][Trp(4-Cl)(βS-Me)]D[dNMeA]G[Bip(4'-COOH)][4Pal]L[dA][hTyr])
SMILES: CC(=O)NCCOc1ccc(C[C@@H]2NC(=O)[C@H](CCc3ccc(O)cc3)NC(=O)[C@@H](C)NC(=O)[C@H](CC(C)C)NC(=O)[C@H](Cc3ccncc3)NC(=O)[C@H](Cc3ccc(-c4ccc(C(=O)O)cc4)cc3)NC(=O)CNC(=O)[C@@H](C)N(C)C(=O)[C@H](CC(=O)O)NC(=O)[C@H]([C@@H](C)c3c[nH]c4cccc(Cl)c34)NC(=O)[C@@H]3C[C@@H](N)CN3C(=O)CNC(=O)[C@H](Cc3ccc(C(=O)O)cc3)NC(=O)[C@H](Cc3c[nH]c4ccccc34)NC2=O)cc1
B7: SEQ ID NO: 134 (Example No. 134) (peptide)
peptide: cyclo([TyrEtNAc]W[Phe(4-COOH)]G[Pro(trans-4-NH2)][Trp(4-Cl)(βS-Me)]D[dNMeA]G[Bip(4'-COOH)][4Pal][Dab][dA][hTyr])
SMILES: CC(=O)NCCOc1ccc(C[C@@H]2NC(=O)[C@H](CCc3ccc(O)cc3)NC(=O)[C@@H](C)NC(=O)[C@H](CCN)NC(=O)[C@H](Cc3ccncc3)NC(=O)[C@H](Cc3ccc(-c4ccc(C(=O)O)cc4)cc3)NC(=O)CNC(=O)[C@@H](C)N(C)C(=O)[C@H](CC(=O)O)NC(=O)[C@H]([C@@H](C)c3c[nH]c4cccc(Cl)c34)NC(=O)[C@@H]3C[C@@H](N)CN3C(=O)CNC(=O)[C@H](Cc3ccc(C(=O)O)cc3)NC(=O)[C@H](Cc3c[nH]c4ccccc34)NC2=O)cc1
B8: SEQ ID NO: 139 (Example No. 139) (peptide)
peptide: cyclo([TyrEtNAc]W[Phe(4-COOH)]G[Pro(trans-4-NH2)][Trp(4-Cl)(βS-Me)]D[dNMeA]G[Bip(4'-COOH)]KS[dDab][hTyr])
SMILES: CC(=O)NCCOc1ccc(C[C@@H]2NC(=O)[C@H](CCc3ccc(O)cc3)NC(=O)[C@@H](CCN)NC(=O)[C@H](CO)NC(=O)[C@H](CCCCN)NC(=O)[C@H](Cc3ccc(-c4ccc(C(=O)O)cc4)cc3)NC(=O)CNC(=O)[C@@H](C)N(C)C(=O)[C@H](CC(=O)O)NC(=O)[C@H]([C@@H](C)c3c[nH]c4cccc(Cl)c34)NC(=O)[C@@H]3C[C@@H](N)CN3C(=O)CNC(=O)[C@H](Cc3ccc(C(=O)O)cc3)NC(=O)[C@H](Cc3c[nH]c4ccccc34)NC2=O)cc1
B9: SEQ ID NO: 143 (Example No. 143) (peptide)
peptide: cyclo([TyrEtNAc]W[Phe(4-COOH)]G[Pro(trans-4-NH2)][Trp(4-Cl)(βS-Me)]D[dNMeA]G[Bip(4'-COOH)]W[Dab][dA][hTyr])
SMILES: CC(=O)NCCOc1ccc(C[C@@H]2NC(=O)[C@H](CCc3ccc(O)cc3)NC(=O)[C@@H](C)NC(=O)[C@H](CCN)NC(=O)[C@H](Cc3c[nH]c4ccccc34)NC(=O)[C@H](Cc3ccc(-c4ccc(C(=O)O)cc4)cc3)NC(=O)CNC(=O)[C@@H](C)N(C)C(=O)[C@H](CC(=O)O)NC(=O)[C@H]([C@@H](C)c3c[nH]c4cccc(Cl)c34)NC(=O)[C@@H]3C[C@@H](N)CN3C(=O)CNC(=O)[C@H](Cc3ccc(C(=O)O)cc3)NC(=O)[C@H](Cc3c[nH]c4ccccc34)NC2=O)cc1
B10: SEQ ID NO: 136 (Example No. 136) (peptide)
peptide: cyclo([TyrEtNAc]W[Phe(4-COOH)]G[Pro(trans-4-NH2)][Trp(4-Cl)(βS-Me)]D[dNMeA]G[Bip(4'-COOH)][4Pal][Nva][dA][Cha44F2])
SMILES: CCC[C@@H]1NC(=O)[C@H](Cc2ccncc2)NC(=O)[C@H](Cc2ccc(-c3ccc(C(=O)O)cc3)cc2)NC(=O)CNC(=O)[C@@H](C)N(C)C(=O)[C@H](CC(=O)O)NC(=O)[C@H]([C@@H](C)c2c[nH]c3cccc(Cl)c23)NC(=O)[C@@H]2C[C@@H](N)CN2C(=O)CNC(=O)[C@H](Cc2ccc(C(=O)O)cc2)NC(=O)[C@H](Cc2c[nH]c3ccccc23)NC(=O)[C@H](Cc2ccc(OCCNC(C)=O)cc2)NC(=O)[C@H](CC2CCC(F)(F)CC2)NC(=O)[C@@H](C)NC1=O
B11: SEQ ID NO: 140 (Example No. 140) (peptide)
peptide: cyclo([TyrEtNAc]W[Phe(4-COOH)]G[Pro(trans-4-NH2)][Trp(4-Cl)(βS-Me)]D[dNMeA]G[Bip(4'-COOH)]W[AbuMph][dA]G)
SMILES: CC(=O)NCCOc1ccc(C[C@@H]2NC(=O)CNC(=O)[C@@H](C)NC(=O)[C@H](CCN3CCOCC3)NC(=O)[C@H](Cc3c[nH]c4ccccc34)NC(=O)[C@H](Cc3ccc(-c4ccc(C(=O)O)cc4)cc3)NC(=O)CNC(=O)[C@@H](C)N(C)C(=O)[C@H](CC(=O)O)NC(=O)[C@H]([C@@H](C)c3c[nH]c4cccc(Cl)c34)NC(=O)[C@@H]3C[C@@H](N)CN3C(=O)CNC(=O)[C@H](Cc3ccc(C(=O)O)cc3)NC(=O)[C@H](Cc3c[nH]c4ccccc34)NC2=O)cc1
B12: SEQ ID NO: 138 (Example No. 138) (peptide)
peptide: cyclo([TyrEtNAc]W[Phe(4-COOH)]G[Pro(trans-4-NH2)][Trp(4-Cl)(βS-Me)]D[dNMeA]G[Bip(4'-COOH)]KS[dA][hTyr])
SMILES: CC(=O)NCCOc1ccc(C[C@@H]2NC(=O)[C@H](CCc3ccc(O)cc3)NC(=O)[C@@H](C)NC(=O)[C@H](CO)NC(=O)[C@H](CCCCN)NC(=O)[C@H](Cc3ccc(-c4ccc(C(=O)O)cc4)cc3)NC(=O)CNC(=O)[C@@H](C)N(C)C(=O)[C@H](CC(=O)O)NC(=O)[C@H]([C@@H](C)c3c[nH]c4cccc(Cl)c34)NC(=O)[C@@H]3C[C@@H](N)CN3C(=O)CNC(=O)[C@H](Cc3ccc(C(=O)O)cc3)NC(=O)[C@H](Cc3c[nH]c4ccccc34)NC2=O)cc1

Each binder was assayed against Recombinant human IL-1β (BioLegend 579404) (human, UniProt P01584 117-269) (assay: cell-based or functional assay).

MRC5 IC50 | Binder
93.9 pM | B1
74.9 pM | B2
74.8 pM | B3
159 pM | B4
177 pM | B5
310 pM | B6
378 pM | B7
132 pM | B8
230 pM | B9
396 pM | B10
515 pM | B11
214 pM | B12
